Tests used:
Experiment in all cases: IEDB peptide-MHC binding, purified MHC/competitive/radioactivity; ≥ and ≤ were set here for values at or beyond the usual limits of such assays
Settings in all cases: source organism: Bordetella pertussis
HLA-A*02:01 = target: HLA-A*02:01
HLA-B*35:01 = target: HLA-B*35:01
HLA-B*57:01 = target: HLA-B*57:01
HLA-B*07:02 = target: HLA-B*07:02
HLA-B*44:03 = target: HLA-B*44:03

Sequence: ALAAIASAA
- IC50 (HLA-A*02:01): 12300 nM

Sequence: DATLVGAKF
- IC50 (HLA-B*35:01): 59.8 µM

Sequence: HFIGYIYEV
- IC50 (HLA-A*02:01): 16.1 nM

Sequence: HVSKEEQYY
- IC50 (HLA-B*57:01): ≥ 70.4 µM
- IC50 (HLA-B*35:01): 69.9 µM

Sequence: KPDRAARVA
- IC50 (HLA-B*07:02): 461 nM

Sequence: LLGSHVARA
- IC50 (HLA-A*02:01): 2350 nM

Sequence: QAIVVGKDL
- IC50 (HLA-B*44:03): 31.8 µM

Sequence: RTRGQARSG
- IC50 (HLA-B*57:01): 11.8 µM

Sequence: RVRALAWLL
- IC50 (HLA-B*07:02): 413 nM
- IC50 (HLA-B*57:01): 0.709 µM

Sequence: VEDIGGKNY
- IC50 (HLA-B*44:03): 16 µM

Sequence: YENKSSTPL
- IC50 (HLA-B*44:03): 37.5 µM

Sequence: YIWGLYQTY
- IC50 (HLA-B*44:03): 0.471 µM

From the Immune Epitope Database (IEDB)
